Consider five molecules from article PMC2811003 (Nucleic Acids Research, 2009).

One may read the Kd as the constant that tells how readily two partners part at equilibrium. Lower therefore signals a tighter complex. The term stoichiometry N denotes a count of units in the complex or per binding partner.

One data set concerns the target T1, PriB wild type (Neisseria gonorrhoeae FA1090, UniProt Q5F924 1-100).
T1 sequence: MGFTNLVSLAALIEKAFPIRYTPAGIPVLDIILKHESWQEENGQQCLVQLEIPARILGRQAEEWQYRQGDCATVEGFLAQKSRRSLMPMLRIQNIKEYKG
Description: fluorescence anisotropy.

The data set “crystal structure” concerns the molecule itself. Nature of the data set: crystal structure.
The target of data set [1] is T2, His-tagged Neisseria gonorrhoeae PriA (Neisseria gonorrhoeae, UniProt Q5F6V8 1-729).
T2 sequence (looked up): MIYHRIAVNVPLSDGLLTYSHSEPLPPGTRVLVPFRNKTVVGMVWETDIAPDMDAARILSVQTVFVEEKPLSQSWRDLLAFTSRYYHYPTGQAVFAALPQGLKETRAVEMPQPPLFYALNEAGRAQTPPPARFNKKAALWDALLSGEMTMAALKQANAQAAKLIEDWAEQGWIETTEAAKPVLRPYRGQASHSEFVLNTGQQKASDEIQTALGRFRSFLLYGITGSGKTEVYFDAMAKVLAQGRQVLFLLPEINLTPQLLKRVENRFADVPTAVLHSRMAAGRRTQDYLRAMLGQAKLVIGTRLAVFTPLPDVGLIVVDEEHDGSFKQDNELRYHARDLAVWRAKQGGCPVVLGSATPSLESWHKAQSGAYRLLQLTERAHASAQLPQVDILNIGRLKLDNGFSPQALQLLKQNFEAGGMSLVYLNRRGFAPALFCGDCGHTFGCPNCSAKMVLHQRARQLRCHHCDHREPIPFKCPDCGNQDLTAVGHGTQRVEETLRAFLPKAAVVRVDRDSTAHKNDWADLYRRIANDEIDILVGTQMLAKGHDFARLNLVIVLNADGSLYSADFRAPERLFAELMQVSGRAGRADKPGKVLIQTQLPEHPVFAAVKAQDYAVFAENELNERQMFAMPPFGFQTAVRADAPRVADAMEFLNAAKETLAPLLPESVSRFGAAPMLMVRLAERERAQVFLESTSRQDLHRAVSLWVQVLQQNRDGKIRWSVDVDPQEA
Nature of the data set: pull-down.

Data set [2] deals with T3, Neisseria gonorrhoeae PriA (Neisseria gonorrhoeae, UniProt Q5F6V8 1-729).
T3 sequence: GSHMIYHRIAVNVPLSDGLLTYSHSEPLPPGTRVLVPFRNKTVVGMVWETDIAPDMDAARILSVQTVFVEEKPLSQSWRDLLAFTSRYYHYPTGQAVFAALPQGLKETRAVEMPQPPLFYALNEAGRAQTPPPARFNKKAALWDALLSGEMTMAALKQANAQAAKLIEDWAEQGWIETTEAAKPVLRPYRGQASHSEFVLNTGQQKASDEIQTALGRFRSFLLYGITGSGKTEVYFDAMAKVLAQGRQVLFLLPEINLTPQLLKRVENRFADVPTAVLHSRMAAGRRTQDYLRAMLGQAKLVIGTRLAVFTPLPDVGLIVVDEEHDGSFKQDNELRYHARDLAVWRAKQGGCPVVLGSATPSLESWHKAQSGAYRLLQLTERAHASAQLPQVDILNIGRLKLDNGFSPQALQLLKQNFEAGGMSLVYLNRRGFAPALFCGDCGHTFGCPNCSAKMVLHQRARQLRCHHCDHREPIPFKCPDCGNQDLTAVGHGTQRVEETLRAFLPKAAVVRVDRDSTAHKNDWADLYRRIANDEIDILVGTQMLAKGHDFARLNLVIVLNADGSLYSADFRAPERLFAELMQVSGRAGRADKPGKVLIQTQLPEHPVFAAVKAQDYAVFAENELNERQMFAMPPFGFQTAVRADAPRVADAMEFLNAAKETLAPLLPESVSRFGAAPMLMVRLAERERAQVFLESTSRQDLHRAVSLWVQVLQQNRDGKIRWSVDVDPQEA
Nature of the data set: fluorescence polarisation. In general terms: In fluorescence polarisation assays a small probe gives low polarisation when free and higher when bound to something large.

The target of another data set is T4, PriB E41A (Neisseria gonorrhoeae FA1090, UniProt Q5F924 1-100, E41A).
T4 sequence: T1 sequence with E41A
Nature of the data set: fluorescence anisotropy.

The target of another data set is T5, PriB Y21A (Neisseria gonorrhoeae FA1090, UniProt Q5F924 1-100, Y21A).
T5 sequence: T1 sequence with Y21A
Description: fluorescence anisotropy.

Positions count from the first letter of the chain named.

AAGCACAATTACCCACGC (ssDNA) [18-base fluoro-ssDNA]: the Kd in the data set with PriB wild type stood at 662 ± 37 nM.
Same read-out and setting: for GCCGTGATCACCAATGCAGATTGACGAACCTTTGCTCCAGTAACC (ssDNA) [45-base fluoro-ssDNA] the value was 1020 ± 34 nM.

B1: Neisseria gonorrhoeae PriB (natural protein)
chain: GSHMGFTNLVSLAALIEKAFPIRYTPAGIPVLDIILKHESWQEENGQQCLVQLEIPARILGRQAEEWQYRQGDCATVEGFLAQKSRRSLMPMLRIQNIKEYKG
Regarding B1, the “stoichiometry N” value in the data set “crystal structure” stood at 2. Moreover, in data set [1], the binding result is “binds”.

B2: FITC-labeled Neisseria gonorrhoeae PriB (natural protein)
chain: B1 chain
modifications: FITC (fluorescein isothiocyanate) label, 0.34 FITC per PriB dimer; labeled residue not stated
On to B2, for which the Kd in data set [2] stood at 137 nM.
For the molecule GCCGTGATCACCAATGCAGATTGACGAACCTTTGCC (ssDNA) [36-base fluoro-ssDNA], the Kd with PriB wild type turned out to be 475 ± 20 nM; with PriB E41A, 139 ± 26 nM; with PriB Y21A it was 641 ± 41 nM.
